From patent publication US20250249115A1, “COMBINATION THERAPY FOR TREATING TUMOR ANTIGEN EXPRESSING CANCERS” (Gilead Sciences, Inc., priority 2022, published 2025) come the findings set out here.

Broadly, the Kd is a measure of binding affinity in units of concentration. High values mean weaker binding, low ones tighter binding. Usually koff stands for the first-order rate constant of dissociation. The kon is the second-order rate constant of association. Higher therefore signals faster complex formation.

Test [1] concerns the target T1, Human Trop-2 (Homo sapiens, UniProt P09758).
T1 sequence (P09758 27-323): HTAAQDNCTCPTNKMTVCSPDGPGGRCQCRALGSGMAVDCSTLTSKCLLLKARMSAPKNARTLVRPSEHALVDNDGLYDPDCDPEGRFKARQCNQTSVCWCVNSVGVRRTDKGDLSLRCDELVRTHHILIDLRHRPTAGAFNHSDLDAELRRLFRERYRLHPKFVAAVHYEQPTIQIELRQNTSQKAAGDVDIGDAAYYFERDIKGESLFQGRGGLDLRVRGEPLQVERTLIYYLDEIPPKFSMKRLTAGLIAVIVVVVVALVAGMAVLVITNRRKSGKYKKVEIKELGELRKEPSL
The test is described as follows: Binding to human Trop-2 measured by surface plasmon resonance (SPR). The text has this:
(§1) To engineer an anti-mouse Trop-2 ADC binding to mouse Trop-2 with proprieties similar to SG, we selected a commercially available anti-mouse Trop-2 rabbit antibody (Sino Biological, #50922-R064) and murinized it to obtain an anti-mouse Trop-2 IgG2a (Rab64/mG2a/mKap). Rab64 mAb was then coupled to CL2A linker/SN-38 payload at a high DAR (˜8-9).
(SPR reads the build-up and loss of mass on a sensor chip optically.)

For test [2], the target named is T2, Mouse Trop-2 (Mus musculus, UniProt Q8BGV3).
T2 sequence (Q8BGV3 25-317): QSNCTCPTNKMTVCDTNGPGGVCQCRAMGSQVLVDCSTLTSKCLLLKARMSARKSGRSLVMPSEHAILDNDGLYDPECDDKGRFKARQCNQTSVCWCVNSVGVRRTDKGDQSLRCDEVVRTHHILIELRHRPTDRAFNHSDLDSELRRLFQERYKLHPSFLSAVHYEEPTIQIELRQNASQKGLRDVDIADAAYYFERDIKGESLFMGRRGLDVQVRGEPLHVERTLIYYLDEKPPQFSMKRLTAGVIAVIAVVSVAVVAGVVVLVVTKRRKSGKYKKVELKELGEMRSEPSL
The experiment in a line: Binding to mouse Trop-2 measured by surface plasmon resonance (SPR).
Source text: as §1

Test [3] deals with Human Trop-2 (human) (UniProt P09758). The test is described as follows: SPR.

Turning to “hRS7-hIgG1k: humanized monoclonal antibody hRS7 IgG1κ, which binds to Trop-2”, the Kd in test [1] amounted to 0.328 nM. Besides, the KD entry in test [2] is “No binding detected”.

B1: hRS7-hIgG1k (antibody, INN chains, looked up, V domains shown)
VH: QVQLQQSGSELKKPGASVKVSCKASGYTFTNYGMNWVKQAPGQGLKWMGWINTYTGEPTYTDDFKGRFAFSLDTSVSTAYLQISSLKADDTAVYFCARGGFGSSYWYFDVWGQGSLVTVSS
VL: DIQLTQSPSSLSASVGDRVSITCKASQDVSIAVAWYQQKPGKAPKLLIYSASYRYTGVPDRFSGSGSGTDFTLTISSLQPEDFAVYYCQQHYITPLTFGAGTKVEIKR
In test [3], B1 came in with a Kd of 0.328 nM, a koff of 0.000144 s⁻¹ and a kon of 440000 M⁻¹ s⁻¹.

B2: Sacituzumab Govitecan (SG, Trodelvy) (antibody, INN chains, looked up, IgG1, V domains shown)
VH: B1 VH
VL: B1 VL
modifications: CL2A-SN-38, DAR 7.5
As for B2, in test [3], the dissociation constant (Kd) amounted to 0.361 nM, the koff was determined as 0.000153 s⁻¹ and the kon came to 423000 M⁻¹ s⁻¹.
